For one assay, the target named is GroEL CP376 (E. coli) (UniProt P0A6F5). Put plainly: SEC; gel filtration profiles observed during purification (AKTA FPLC, 4°C); data not shown. Background: SEC sorts molecules by how far they enter the pores of the column.
Assay [1] addresses GroEL CP376-RW (E. coli) (UniProt P0A6F5). The description is as above.
Assay [2] has the same target. Nature of the assay: negative-stain electron microscopy; GroEL alone, 0.25 mg/ml in 50 mM triethanolamine pH 7.5, 20 mM MgCl2, 50 mM KCl; 1% uranyl acetate.

What is called stoichiometry N is a count of units in the complex or per binding partner.

“GroEL CP376 (from UniProt P0A6F5 376-548; P0A6F5 2-374)” came in with a stoichiometry N in the assay with GroEL CP376 (E. coli) of 14.

Turning to “GroEL CP376-RW (from UniProt P0A6F5 376-548; P0A6F5 2-374)”, the stoichiometry N with GroEL CP376-RW (E. coli) [1] and in the assay with GroEL CP376-RW (E. coli) [2] was 14 each time.

(Values after article PMC3196576.)
